# Measurements taken from patent US20260258121A1, “USES OF POMC-SPECIFIC ANTIBODY AND MARCHF6” (KOREA UNIVERSITY RESEARCH AND BUSINESS FOUNDATION, priority 2023, published 2026).
# T1: POMC (Homo sapiens, UniProt P01189)
# T1 construct: expressed in transfected cells; host or cells: HEK293T
# T1 sequence (P01189 1-267): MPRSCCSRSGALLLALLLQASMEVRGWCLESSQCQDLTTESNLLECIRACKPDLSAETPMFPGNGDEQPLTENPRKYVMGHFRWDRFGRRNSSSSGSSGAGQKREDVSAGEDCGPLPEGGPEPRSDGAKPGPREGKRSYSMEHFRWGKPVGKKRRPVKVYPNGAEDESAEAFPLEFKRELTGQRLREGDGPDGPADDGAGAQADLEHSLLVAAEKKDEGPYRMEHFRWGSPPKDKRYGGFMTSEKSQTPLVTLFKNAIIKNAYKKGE
# T2: GST-POMC fragments (Homo sapiens, UniProt P01189)
# T2 construct: purified GST, GST-POMC^1-76, GST-POMC^27-76, or GST-POMC^1-26 was incubated with 50 μl of glutathione Sepharose beads; made in house; Marchf63f came from an extract of transfected HEK293T cells
# T2 sequence (P01189 1-26): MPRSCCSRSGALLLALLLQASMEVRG
# T3: GST-POMC fragments (Homo sapiens, UniProt P01189)
# T3 construct: purified GST, GST-POMC^1-76, GST-POMC^27-76, or GST-POMC^1-26 was incubated with 50 μl of glutathione Sepharose beads; made in house; Marchf63f came from an extract of transfected HEK293T cells
# T3 sequence (P01189 1-76): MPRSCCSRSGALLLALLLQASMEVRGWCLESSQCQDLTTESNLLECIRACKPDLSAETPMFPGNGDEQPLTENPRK
# T4: GST-POMC fragments (Homo sapiens, UniProt P01189)
# T4 construct: purified GST, GST-POMC^1-76, GST-POMC^27-76, or GST-POMC^1-26 was incubated with 50 μl of glutathione Sepharose beads; made in house; Marchf63f came from an extract of transfected HEK293T cells
# T4 sequence (P01189 27-76): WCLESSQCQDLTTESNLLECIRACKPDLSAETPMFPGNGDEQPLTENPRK
# Legend:
# 4-hydroxynonenal (4HNE) = assay: Immunoblotting of 4-HNE in POMCha-overexpressing N43/5 cells; assay type: cell-based, mouse; details: Fer-1 5 μM, 24 h
# [1] = system: POMCha-overexpressing Marchf6-KO N43/5 cells; assay: Cell viability (CellTiter-Glo) of POMCha-overexpressing Marchf6-KO N43/5 cells; assay type: cell-based, mouse
# Description: To understand the functional or mechanistic association between Marchf6-mediated POMC degradation and ferroptosis, lipid ROS levels were compared in N43/5 cells overexpressing POMCha using a lipid peroxidation sensor C11-BODIPY^581/591. Specifically, WT or Marchf6-KO N43/5 cells were transfected with pCH4129 (POMCha) for 48 hours, and the medium was replaced with a culture medium containing 2 μM C11-BODIPY^581/591 (Thermo Fisher Scientific, D3861). The cells were incubated at 37° C. for 30 minutes, and the fluorescent probe-treated cells were trypsinized, transferred to a 15 ml Falcon tube, washed three times with 1 ml of ice-cold PBS, and then transferred to an ice-cold round-bottom polystyrene tube (Corning, 352235). The amount of intracellular lipid ROS in […] was measured using CytoFLEX LX (Beckman Coulter) using fluorescein isothiocyanate (FITC) and analyzed using FlowJo v10.8.1 (BD Bioscience). In addition, cell viability was analyzed using a CellTiter-Glo luminescent 3D cell viability assay kit (Promega, G9241) and a multimode plate reader (TECAN, Spark 10 M). At this time, when the inhibition of cell death was evaluated, WT or Marchf6-KO N43/5 cells expressing pCH60 (empty vector) or pCH4129 (POMCha) (final concentration of […] each) were treated with 5 μM Fer-1, 20 μM Z-VAD-FMK or 40 μM Nec-1, and incubated for 24 hours, and cell viability was analyzed. In addition, the intracellular NADP(H) level was measured using a NADP/NADPH-Glo assay kit (Promega, G9081) and a multimode plate reader (TECAN, Spark 10 M). Further, LDH activity was measured using the Cytotoxicity Detection Kit Plus (LDH) (Sigma, 4744926001).
# Through Examples, since Marchf6 mediated the degradation of POMC, it was expected that loss of Marchf6 would make POMC neurons hypersensitive to POMC-induced ferroptosis. Therefore, pCH60 (empty vector), pCH879 (Marchf63f), pCH880 (Marchf6flag^C9A), or pCH4170 (Marchf6flag^P460A) was transfected into WT or Marchf6-KO N43/5 cells, and the degree of ferroptosis induction in POMC neurons was analyzed as in Example 6-1.
# [2] = system: Gpx4, CHOP, Nox2, and Nox4; assay: Immunoblotting of Gpx4, CHOP, Nox2 and Nox4 in POMCha-overexpressing Marchf6-KO N43/5 cells; assay type: cell-based, mouse
# POMC = biological target: T1, POMC; assay: Chemical crosslinking-based reciprocal co-immunoprecipitation assay in HEK293T cells; assay type: binding; details: DSP crosslinking
# Description: For the chemical crosslinking-based reciprocal co-immunoprecipitation assay, HEK293T cells were incubated at […] in a 10-cm dish plate and co-transfected with […] of pCH60 (empty vector) or pCH4129 (exogenous C-terminally hemagglutinin (ha)-tagged POMC: POMCha) and pCH879 (wild-type C-terminal triple flag-tagged Marchf6: Marchf63f) or pCH4170 (Marchf6^P460A) and incubated for 48 hours. The cells were washed with PBS, treated with 1 mM DSP [dithiobis(succinimidyl propionate)] (Thermo Fisher, 22585), and then the crosslinked cells were lysed and immunoprecipitated. The beads were washed three times with an IP-wash buffer (20 mM Tris-HCl, 137 mM NaCl, 0.1% NP-40, 2 mM EDTA, 10% glycerol) and bound proteins were eluted with a 2× SDS sample buffer. For immunoprecipitation with FLAG-agarose (Sigma-Aldrich, A2220), a 3× FLAG peptide (Protein Ark, GEN-3XFLAG-5) was used. Thereafter, the eluate was denatured and heated at 37° C. for 20 minutes, and SDS-PAGE and immunoblotting were performed using the corresponding antibody.
# GST-POMC fragments [3] = biological target: T2, GST-POMC fragments; assay: GST pull-down assay; assay type: binding; details: extract of HEK293T cells expressing Marchf63f
# Description: (§1) To clarify a POMC domain binding to the C4 domain of Marchf6, a Y2H assay was performed using a set of POMC fragments in which the C4 of Marchf6 and the C-terminus (Ct-) of POMC were cleaved. To this end, pCH4540 (C4), pCH4132 (POMC), or cleaved forms thereof pCH4235 (POMC^1-76), pCH4236 (POMC^1-87), pCH4237 (POMC^1-102), pCH4238 (POMC^1-137), and pCH4239 (POMC^1-176) were co-transformed into CHY726 and spotted on a SC(-Leu/-Trp) or SC(-Leu/-Trp/-His) plate and analyzed as in Example above. In addition, for interaction analysis between full-length Marchf6 and POMC, a split-Ub assay was performed by transforming S. cerevisiae CHY712 with pCH836 (Marchf6) or pCH4311 (Marchf6^P460A) as bait and pCH4203 (POMC^1-267), pCH4204 (POMC^77-267), or pCH4313 (POMC^1-76) as prey. In addition, for glutathione-S-transferase (GST) pull-down assay, […] of purified GST, GST-POMC^1-76, GST-POMC^27-76, or GST-POMC^1-26 was incubated with 50 μl of glutathione Sepharose beads (Cytiva, 17-0756-05) at 4° C. for 2 hours.
# (§2) HEK293T cells transfected with pCH879 (Marchf63f) were lysed with a lysis buffer (50 mM Tris-HCl, 150 mM NaCl, 1 mM EDTA, 1% NP-40, pH 7.6) containing 1× protease inhibitor cocktail to obtain an extract, and the extract and the beads were further incubated at 4° C. for 2 hours, and then washed three times with 0.5 ml of GST-wash buffer (20 mM Tris-HCl, 137 mM NaCl, 2 mM EDTA, 0.5% NP-40, 10% glycerol, pH 7.6). Proteins binding to the beads were eluted with a 2× SDS-sample buffer, heated at 37° C. for 20 minutes, subjected to SDS-PAGE, Coomassie blue staining, and immunoblotting using anti-flag antibody.
# GST-POMC fragments [4] = biological target: T3, GST-POMC fragments; assay: GST pull-down assay; assay type: binding; details: extract of HEK293T cells expressing Marchf63f; remark: listed apart in the source
# Description: as §1, §2
# GST-POMC fragments [5] = biological target: T4, GST-POMC fragments; assay: GST pull-down assay; assay type: binding; details: extract of HEK293T cells expressing Marchf63f; remark: listed apart in the source
# Description: as §1, §2
Molecule,"level of 4-hydroxynonenal (4HNE) increased by overexpression of POMCha, effect of treatment (4-hydroxynonenal (4HNE))","decreased viability of POMCha-overexpressing Marchf6-KO N43/5 cells, effect of treatment ([1]; 5 μM Fer-1, 24 hours)","reduced viability of POMCha-overexpressing Marchf6-deficient N43/5 cells, effect of ectopic expression ([1]; ectopic expression by transfection)","expression levels of Gpx4, CHOP, Nox2, and Nox4 proteins, effect of expression of construct [2]",binding of full-length POMC (co-immunoprecipitation) (POMC),binding to GST-POMC^1-26 (GST-POMC fragments [3]),binding to GST-POMC^1-76 (GST-POMC fragments [4]),binding to GST-POMC^27-76 (GST-POMC fragments [5])
"CCOC(=O)c1ccc(NC2CCCCC2)c(N)c1 [Fer-1, ferrostatin-1, reference compound]",restored,restored,,,,,,
"Marchf63f: wild-type C-terminal triple flag-tagged Marchf6 (membrane associated ring-CH-type finger 6), expressed from pCH879 (protein, UniProt Q6ZQ89 1-909, looked up, C-terminal triple FLAG tag, wild-type C-terminal triple flag-tagged Marchf6 (membrane associated ring-CH-type finger 6), expressed from pCH879) E3 ubiquitin-protein ligase …: MDTAEEDICRVCRSEGTPEKPLYHPCVCTGSIKFIHQECLVQWLKHSRKEYCELCKHRFAFTPIYSPDMPSRLPIQDIFAGLVTSIGTAIRYWFHYTLVAFAWLGVVPLTACRIYKCLFTGSVSSLLTLPLDMLSTENLLADCLQGCFVVTCTLCAFISLVWLREQIVHGGAPIWLEHAAPPFNAAGHHQNEAPVGGNGAENPAADQPANPAGENAVLGENPDAQDGQAEEEEEDNEEEDDAGVEDAADANNGAQDDMNWNALEWDRAAEELTWERMLGLDGSLVFLEHVFWVVSLNTLFILVFAFCPYHIGHFSLVGLGFEEHVQASHFEGLITTIVGYILLAITLIICHALATLVKFHRSRRLLGVCYIVVKVSLLVVVEIGVFPLICGWWLDICSLEMFDATLKDRELSFQSAPGTTMFLHWLVGMVYVFYFASFILLLREVLRPGVLWFLRNLNDPDFNPVQEMIHLPIYRHLRRFILSVIVFGSIVLLMLWLPIRIIKSLLPNFLPYNVMLYSDAPVSELSLELLLLQVVLPALLEQGHTRQWLKGLVRAWTVTAGYLLDLHSYLLGDQEENENSANQQVNNNQPARNNNAVPAGEGLHAAHQAILQQGGPVGFQPYRRPLNFPLRIFLLIVFMCITLLIASLICLTLPVFAGRWLMSFWTGTAKIHELYTAACGLYVCWLTIRAVTVLVAWMPQGRRVIFQKVKEWSLMIMKTLIVAVLLAGVVPLLLGLLFELVIVAPLRVPLDQTPLFYPWQDWALGVLHAKIIAAITLMGPQWWLKTVIEQVYANGIRNIDLHYIIRKLAAPVISVLLLSLCVPYVIASGAVPLLGVTAEMQNLVHRRIYPFLLMVVVLMGILSFQVRQFKRLYEHIKNDKYLVGQRLVNYERKSGKQGPSTPPPVSSQE",,,restored,restored,specifically bound,hardly bound,directly bound,very weakly bound
